Results: publication PMC10584365 (Nature, 2023)
Values joined by “and” are separate entries in the source; they are usually repeats but may differ in a detail not shown here. Identical values can stand only once.

B1: full-length human TRPV3 channel (expressed in P. pastoris) (natural protein, UniProt Q8NET8 1-790, looked up)
chain: MKAHPKEMVPLMGKRVAAPSGNPAILPEKRPAEITPTKKSAHFFLEIEGFEPNPTVAKTSPPVFSKPMDSNIRQCISGNCDDMDSPQSPQDDVTETPSNPNSPSAQLAKEEQRRKKRRLKKRIFAAVSEGCVEELVELLVELQELCRRRHDEDVPDFLMHKLTASDTGKTCLMKALLNINPNTKEIVRILLAFAEENDILGRFINAEYTEEAYEGQTALNIAIERRQGDIAALLIAAGADVNAHAKGAFFNPKYQHEGFYFGETPLALAACTNQPEIVQLLMEHEQTDITSRDSRGNNILHALVTVAEDFKTQNDFVKRMYDMILLRSGNWELETTRNNDGLTPLQLAAKMGKAEILKYILSREIKEKRLRSLSRKFTDWAYGPVSSSLYDLTNVDTTTDNSVLEITVYNTNIDNRHEMLTLEPLHTLLHMKWKKFAKHMFFLSFCFYFFYNITLTLVSYYRPREEEAIPHPLALTHKMGWLQLLGRMFVLIWAMCISVKEGIAIFLLRPSDLQSILSDAWFHFVFFIQAVLVILSVFLYLFAYKEYLACLVLAMALGWANMLYYTRGFQSMGMYSVMIQKVILHDVLKFLFVYIVFLLGFGVALASLIEKCPKDNKDCSSYGSFSDAVLELFKLTIGLGDLNIQQNSKYPILFLFLLITYVILTFVLLLNMLIALMGETVENVSKESERIWRLQRARTILEFEKMLPEWLRSRFRMGELCKVAEDDFRLCLRINEVKWTEWKTHVSFLNEDPGPVRRTDFNKIQDSSRNNSKTTLNAFEEVEEFPETSV
B2: full-length human TRPV3 (expressed in HEK293S GnTI- cells) (natural protein, UniProt Q8NET8 1-790, looked up)
chain: B1 chain

Target: the molecule itself
Test: high-speed atomic force microscopy

Row | Protein | stoichiometry N
1 | B1 | 4 and 5
2 | B2 | 3 and 2
